Data on 108 variants can be found in PMC12102759.

B1: RNF115 peptide 69-84 (E3 ubiquitin-protein ligase RNF115), 16-mer library wild type / MDM2 SWIB (MDM2 SWIB/MDM2 domain, residues 17-125) (parent)
chain 1: THFAELWGHLDHTMFF
chain 2: SQIPASEQETLVRPKPLLLKLLKSVGAQKDTYTMKEVLFYLGQYIMTKRLYDEKQQHIVYCSNDLLGDLFGVPSFSVKEHRKIYTMIYRNLVVVNQQESSDSGTSVSEN
B2: MXI1 peptide 6-21 (Max-interacting protein 1), 16-mer library wild type / SIN3A PAH2 (SIN3A PAH domain, residues 295-383) (parent)
chain 1: MINVQRLLEAAEFLER
chain 2: SLQNNQPVEFNHAINYVNKIKNRFQGQPDIYKAFLEILHTYQKEQRNAKEAGGNYTPALTEQEVYAQVARLFKNQEDLLSEFGQFLPDA
B3: PIP5K1C peptide 642-657 (Phosphatidylinositol 4-phosphate 5-kinase type-1 gamma), 16-mer library wild type / TLN1 PTB (TLN1 Phosphotyrosine-binding (PTB) domain, residues 309-401) (parent)
chain 1: TDERSWVYSPLHYSAQ
chain 2: GVSFFLVKEKMKGKNKLVPRLLGITKECVMRVDEKTKEVIQEWNLTNIKRWAASPKSFTLDFGDYQDGYYSVQTTEGEQIAQLIAGYIDIILK
B4: AMOTL2 peptide 64-79 (Angiomotin-like protein 2), 16-mer library wild type / TNKS ANK (TNKS 12 ANK repeats, residues 174-649) (parent)
chain 1: QVLQQATRQEPQGQEH
chain 2: TGVPAVSGALRELLEACRNGDVSRVKRLVDAANVNAKDMAGRKSSPLHFAAGFGRKDVVEHLLQMGANVHARDDGGLIPLHNACSFGHAEVVSLLLCQGADPNARDNWNYTPLHEAAIKGKIDVCIVLLQHGADPNIRNTDGKSALDLADPSAKAVLTGEYKKDELLEAARSGNEEKLMALLTPLNVNCHASDGRKSTPLHLAAGYNRVRIVQLLLQHGADVHAKDKGGLVPLHNACSYGHYEVTELLLKHGACVNAMDLWQFTPLHEAASKNRVEVCSLLLSHGADPTLVNCHGKSAVDMAPTPELRERLTYEFKGHSLLQAAREADLAKVKKTLALEIINFKQPQSHETALHCAVASLHPKRKQVTELLLRKGANVNEKNKDFMTPLHVAAERAHNDVMEVLHKHGAKMNALDTLGQTALHRAALAGHLQTCRLLLSYGSDPSIISLQGFTAAQMGNEAVQQILSESTPIRTSD
B5: MXI1 peptide 4-19 (Max-interacting protein 1), 16-mer library wild type / SIN3A PAH2 (SIN3A PAH domain, residues 295-383) (parent)
chain 1: VKMINVQRLLEAAEFL
chain 2: B2 chain 2

Variants of B1 are the subject of the first assay. In words: proteomic peptide phage display deep mutational scan (ProP-PD DMS): M13 P8 16-mer library selected against immobilised GST-tagged bait for four days (rounds), NGS of the eluted pools per day and pseudo-replica. Particulars: with MDM2 SWIB (MDM2 SWIB/MDM2 domain, residues 17-125); bait immobilised on MaxiSorp plates (10 µg), library pre-cleared on GST, 2 h binding at 4 °C, five washes; one round per day, days 1-4; value from days 2 and 3; keep out of graded; scale: average fractional NGS count over selection days 2 and 3.
Take chain 1 L6T: the screen value turned out to be 0.
In the case of chain 1 L6S, the screen value turned out to be 0.
On the same count and under the same terms, to chain 1 H12W belongs 3.9e-05.
With chain 1 H12Y, the screen value is 4.94e-05.
Still for that read-out and setting: with chain 1 H12R the figure was 4.65e-05; with chain 1 H9P, 0.
On the same count and under the same terms, with chain 1 H9L the figure was 3.74e-05; with chain 1 F3P, 0.000115.
Consider chain 1 F3K, for which the screen value turned out to be 0.
As for chain 1 F3M, the screen value stood at 0.
On the same count and under the same terms, to chain 1 W7N belongs 0; to chain 1 W7D, 0.
Still for that read-out and setting: with chain 1 W7E the figure was 0; with chain 1 W7K, 0.

Variants of B2 are the subject of a further assay. Described as above. Particulars: with SIN3A PAH2 (SIN3A PAH domain, residues 295-383); bait immobilised on MaxiSorp plates (10 µg), library pre-cleared on GST, 2 h binding at 4 °C, five washes; one round per day, days 1-4; value from days 2 and 3; keep out of graded; scale: average fractional NGS count over selection days 2 and 3.
With chain 1 MINVPRLLEAAEFLER [chain 1 Q5P], the screen value was 3.48e-05.
On the same count and under the same terms, to chain 1 MINVWRLLEAAEFLER [chain 1 Q5W] belongs 6.78e-05.
Same read-out and setting: to chain 1 MINVDRLLEAAEFLER [chain 1 Q5D] belongs 0.
Same read-out and setting: with chain 1 TINVQRLLEAAEFLER [chain 1 M1T] the figure was 0.
As for chain 1 HINVQRLLEAAEFLER [chain 1 M1H], the screen value is 8.47e-05.
Same read-out and setting: with chain 1 LINVQRLLEAAEFLER [chain 1 M1L] the figure was 3.46e-05; with chain 1 AINVQRLLEAAEFLER [chain 1 M1A], 6.67e-05; with chain 1 MINVQFLLEAAEFLER [chain 1 R6F], 4.27e-05.
For chain 1 MINVQTLLEAAEFLER [chain 1 R6T], the screen value was found to be 0.
Regarding chain 1 MINVQDLLEAAEFLER [chain 1 R6D], the screen value turned out to be 5.76e-05.
Still for that read-out and setting: with chain 1 MINVQMLLEAAEFLER [chain 1 R6M] the figure was 6.6e-05.
With chain 1 MINVQRLLEAAEFAER [chain 1 L14A], the screen value turned out to be 0.
On to chain 1 MINVQRLLEAAEFQER [chain 1 L14Q], for which the screen value was determined as 7.31e-05.
chain 1 MINVQRLLEAAEFFER [chain 1 L14F]: the screen value worked out at 3.78e-05.
The same measure, in the same setting: to chain 1 MINVQRLLEAAEFTER [chain 1 L14T] belongs 5.17e-05; to chain 1 MINVQRVLEAAEFLER [chain 1 L7V], 6.69e-05; to chain 1 MINVQRMLEAAEFLER [chain 1 L7M], 0.
On the same count and under the same terms, to chain 1 MINVQRRLEAAEFLER [chain 1 L7R] belongs 0.
Turning to chain 1 MINVQRLFEAAEFLER [chain 1 L8F], the screen value came out at 7.63e-05.
chain 1 MINVQRLNEAAEFLER [chain 1 L8N]: the screen value was determined as 7.15e-05.
With chain 1 MINVQRLWEAAEFLER [chain 1 L8W], the screen value amounted to 6.64e-05.
Take chain 1 MINVQRLAEAAEFLER [chain 1 L8A]: the screen value came to 2.84e-05.
The same measure, in the same setting: with chain 1 MINVQRLREAAEFLER [chain 1 L8R] the figure was 4.34e-05; with chain 1 MKNVQRLLEAAEFLER [chain 1 I2K], 0; with chain 1 MINMQRLLEAAEFLER [chain 1 V4M], 7.16e-05.
The same measure, in the same setting: to chain 1 MINGQRLLEAAEFLER [chain 1 V4G] belongs 6.66e-05; to chain 1 MINEQRLLEAAEFLER [chain 1 V4E], 0.
On the same count and under the same terms, with chain 1 MINSQRLLEAAEFLER [chain 1 V4S] the figure was 0; with chain 1 MINRQRLLEAAEFLER [chain 1 V4R], 0.
Take chain 1 MINPQRLLEAAEFLER [chain 1 V4P]: the screen value was found to be 1.91e-05.
Regarding chain 1 MIRVQRLLEAAEFLER [chain 1 N3R], the screen value was 4.48e-05.
Consider chain 1 MIAVQRLLEAAEFLER [chain 1 N3A], for which the screen value stood at 0.
On the same count and under the same terms, with chain 1 MIQVQRLLEAAEFLER [chain 1 N3Q] the figure was 5.31e-05.

In a further assay the parent is B3. Described as above. Particulars: with TLN1 PTB (TLN1 Phosphotyrosine-binding (PTB) domain, residues 309-401); bait immobilised on MaxiSorp plates (10 µg), library pre-cleared on GST, 2 h binding at 4 °C, five washes; one round per day, days 1-4; value from days 2 and 3; keep out of graded; scale: average fractional NGS count over selection days 2 and 3.
Take chain 1 R4I: the screen value turned out to be 3.79e-05.
Still for that read-out and setting: to chain 1 L11N belongs 8.93e-05.
On the same count and under the same terms, with chain 1 L11S the figure was 3.05e-05; with chain 1 L11D, 0; with chain 1 L11Q, 2.8e-05.
The same measure, in the same setting: with chain 1 L11K the figure was 8.99e-05; with chain 1 W6Q, 0.
Turning to chain 1 W6A, the screen value was found to be 2.49e-05.
On to chain 1 W6H, for which the screen value stood at 0.
Take chain 1 W6D: the screen value was found to be 0.
Regarding chain 1 W6G, the screen value was 3.45e-05.
Take chain 1 P10W: the screen value is 8.28e-05.
Still for that read-out and setting: to chain 1 D2K belongs 0.000108; to chain 1 S9E, 6.87e-05.
Same read-out and setting: with chain 1 S9K the figure was 0; with chain 1 S9Q, 4.86e-05; with chain 1 S9W, 0.
For chain 1 S9Y, the screen value amounted to 5.79e-05.
Still for that read-out and setting: to chain 1 S9L belongs 0; to chain 1 S9V, 3.45e-05.
Same read-out and setting: with chain 1 A15Y the figure was 9.95e-05.
Same read-out and setting: with chain 1 A15K the figure was 0.

The next assay covers variants of B4. The description is as above. Particulars: with TNKS ANK (TNKS 12 ANK repeats, residues 174-649); bait immobilised on MaxiSorp plates (10 µg), library pre-cleared on GST, 2 h binding at 4 °C, five washes; one round per day, days 1-4; value from days 2 and 3; keep out of graded; scale: average fractional NGS count over selection days 2 and 3.
In the case of chain 1 QVLQNATRQEPQGQEH [chain 1 Q5N], the screen value came to 8.23e-05.
The same measure, in the same setting: to chain 1 QVLQGATRQEPQGQEH [chain 1 Q5G] belongs 2.86e-05.
As for chain 1 QVLQDATRQEPQGQEH [chain 1 Q5D], the screen value was 0.000115.
Turning to chain 1 QVLQWATRQEPQGQEH [chain 1 Q5W], the screen value was determined as 6.13e-05.
For the variant chain 1 QVLQQATRGEPQGQEH [chain 1 Q9G], the screen value was determined as 7.98e-05.
On the same count and under the same terms, with chain 1 QVLQQATRKEPQGQEH [chain 1 Q9K] the figure was 4.55e-05; with chain 1 QVLQQATRIEPQGQEH [chain 1 Q9I], 5.19e-05.
For chain 1 QVWQQATRQEPQGQEH [chain 1 L3W], the screen value was found to be 8.89e-05.
With chain 1 QVLQQATRQEPQGGEH [chain 1 Q14G], the screen value came to 0.000146.
For chain 1 QVLQQATRQEPQGFEH [chain 1 Q14F], the screen value was found to be 3.1e-05.
The same measure, in the same setting: to chain 1 QVLQQATRQEPQIQEH [chain 1 G13I] belongs 0; to chain 1 QVLQQATRQEPQWQEH [chain 1 G13W], 0.
On the same count and under the same terms, to chain 1 QVLQQATRQEPQQQEH [chain 1 G13Q] belongs 0; to chain 1 QVLQQATRQEPKGQEH [chain 1 Q12K], 5.93e-05.
chain 1 QVLQQATRQEPRGQEH [chain 1 Q12R]: the screen value came to 4.06e-05.
For chain 1 QVLQQATRQRPQGQEH [chain 1 E10R], the screen value was 7.98e-05.
On to chain 1 QVLQQATRQDPQGQEH [chain 1 E10D], for which the screen value is 9.35e-05.
The same measure, in the same setting: to chain 1 QVLQQATRQWPQGQEH [chain 1 E10W] belongs 7.2e-05.
Consider chain 1 QVLQQYTRQEPQGQEH [chain 1 A6Y], for which the screen value amounted to 5.3e-05.
For the variant chain 1 QVLQQPTRQEPQGQEH [chain 1 A6P], the screen value stood at 4.91e-05.
chain 1 QVLQQKTRQEPQGQEH [chain 1 A6K]: the screen value came to 7.72e-05.
Still for that read-out and setting: to chain 1 QVLQQATRQEQQGQEH [chain 1 P11Q] belongs 0; to chain 1 QVLQQATRQEIQGQEH [chain 1 P11I], 5.08e-05; to chain 1 QVLQQATRQEDQGQEH [chain 1 P11D], 0.
In the case of chain 1 QVLQQATRQEGQGQEH [chain 1 P11G], the screen value is 0.000112.
As for chain 1 QVLQQATRQERQGQEH [chain 1 P11R], the screen value was 0.
Same read-out and setting: with chain 1 QVLQQATRQEPQGQEF [chain 1 H16F] the figure was 7.99e-05; with chain 1 QVLQQATRQEPQGQEK [chain 1 H16K], 8.3e-05; with chain 1 QVLQQATRQEPQGQEG [chain 1 H16G], 6.49e-05.
Same read-out and setting: with chain 1 QVLQQATRQEPQGQGH [chain 1 E15G] the figure was 6.84e-05; with chain 1 QVLQQATRQEPQGQKH [chain 1 E15K], 0; with chain 1 QVLQQADRQEPQGQEH [chain 1 T7D], 6.07e-05.
Same read-out and setting: with chain 1 QVLQQAKRQEPQGQEH [chain 1 T7K] the figure was 7.17e-05.
As for chain 1 QVLQQARRQEPQGQEH [chain 1 T7R], the screen value stood at 0.
Consider chain 1 QVLQQATIQEPQGQEH [chain 1 R8I], for which the screen value stood at 0.
Still for that read-out and setting: with chain 1 QVLQQATPQEPQGQEH [chain 1 R8P] the figure was 8.36e-05; with chain 1 QVLQQATFQEPQGQEH [chain 1 R8F], 0.

The next assay covers variants of B5. Described as above. To be noted: with SIN3A PAH2 (SIN3A PAH domain, residues 295-383); bait immobilised on MaxiSorp plates (10 µg), library pre-cleared on GST, 2 h binding at 4 °C, five washes; one round per day, days 1-4; value from days 2 and 3; keep out of graded; scale: average fractional NGS count over selection days 2 and 3.
Regarding chain 1 VKMINVQGLLEAAEFL [chain 1 R8G], the screen value is 0.000403.
The same measure, in the same setting: to chain 1 VKMINVQRLLEAAEFR [chain 1 L16R] belongs 0.000122.
